This passage reports Km, Vmax and kcat results from publication PMC3846777, “Characteristics and Function of Sulfur Dioxygenase in Echiuran Worm Urechis unicinctus” (PLoS ONE, 2013).

Common to all, as to experiment: oxygen consumption, Clark-type oxygen electrode (Oxytherm)
Common to all, as to type: biochemical, Urechis unicinctus
What all share (details): 0.1 M potassium phosphate pH 7.4, 25°C, O2 co-substrate, GSS^− prepared from GSH and acetonic sulfur

Substrate in data set [1]: N[C@@H](CCC(=O)N[C@@H](CSS)C(=O)NCC(=O)O)C(=O)O
From the text: oxygen consumption, Clark-type oxygen electrode (Oxytherm) on Del-2

Substrate in data set [2]: N[C@@H](CCC(=O)N[C@@H](CSS)C(=O)NCC(=O)O)C(=O)O
This is another data set of the same source.

Substrate in data set [3]: N[C@@H](CCC(=O)N[C@@H](CSS)C(=O)NCC(=O)O)C(=O)O
From the text: oxygen consumption, Clark-type oxygen electrode (Oxytherm) on U. unicinctus SDO (complete ORF, wild type)
This is another data set of the same source.

Substrate in data set [4]: N[C@@H](CCC(=O)N[C@@H](CSS)C(=O)NCC(=O)O)C(=O)O
From the text:
oxygen consumption, Clark-type oxygen electrode (Oxytherm) on Del-4
This is another data set of the same source.

Substrate in data set [5]: N[C@@H](CCC(=O)N[C@@H](CSS)C(=O)NCC(=O)O)C(=O)O
From the text:
oxygen consumption, Clark-type oxygen electrode (Oxytherm) on Del-1
This is another data set of the same source.

Substrate in data set [6]: N[C@@H](CCC(=O)N[C@@H](CSS)C(=O)NCC(=O)O)C(=O)O
From the text: oxygen consumption, Clark-type oxygen electrode (Oxytherm) on Del-3
This is another data set of the same source.

Numbering of substitutions follows the chain as printed. Numbers in names are those of the source.

B1: Del-2 (Urechis unicinctus) (protein)
chain: MLSSVCGSLRRTLCNGSVLASKHPFLGRSNALKLETKPVCTRVMYRSYSANMHGQEVVFRQLFDNTSFTYTYLLGDAASKEAVLIDPVIELVDRDVRIVKELGLNLKYAVNTHVHADHVTGTGEIKKRIPTCKSVIAECSQAKADVFINEGDGIEFGQF
notes: C-terminally truncated SDO, 477 bp from the start codon (159 residues, end calculated from printed size)
For orientation: Km means the substrate concentration at which the rate is half of its maximum. The term Vmax denotes the rate approached at saturating substrate. As a reminder, the kcat is the maximal rate divided by the concentration of active sites. For B1, in data set [1], the Km came to 137.0 ± 17.2 µM, the Vmax came to 0.42 ± 0.024 µmol/min/mg and the catalytic constant (kcat) was determined as 0.16 s⁻¹.

B2: U. unicinctus SDO (complete ORF, wild type) (Urechis unicinctus; D117E/H118A) (protein)
chain: MLSSVCGSLRRTLCNGSVLASKHPFLGRSNALKLETKPVCTRVMYRSYSANMHGQEVVFRQLFDNTSFTYTYLLGDAASKEAVLIDPVIELVDRDVRIVKELGLNLKYAVNTHVHAEAVTGTGEIKKRIPTCKSVIAECSQAKADVFINEGDGIEFGQFKLECRSTPGHTDGCFTYVWHEKGMAFTGDALLIRGCGRTDFQQGSSEALYKSVHGKILSLPEQFILYPAHDYTGQTSTTVREEKNHNPRLTKPIDVFIRIMSELNLPYPKQLDRALPANMVCGIFDTESPPSKS
For the protein B2, the Km in data set [2] is 174.4 ± 16.8 µM.

B3: U. unicinctus SDO (complete ORF, wild type) (Urechis unicinctus) (protein)
chain: B2 chain with E117D, A118H
As to B3, in data set [3], the Km amounted to 82.5 ± 9.9 µM, the Vmax amounted to 1.74 ± 0.081 µmol/min/mg and the kcat came out at 1.09 s⁻¹.

B4: Del-4 (Urechis unicinctus) (protein)
chain: MLSSVCGSLRRTLCNGSVLASKHPFLGRSNALKLETKPVCTRVMYRSYSANMHGQEVVFRQLFDNTSFTYTYLLGDAASKEAVLIDPVIELVDRDVRIVKELGLNLKYAVNTHVHADHVTGTGEIKKRIPTCKSVIAECSQAKADVFINEGDGIEFGQFKLECRSTPGHTDGCFTYVWHEKGMAFTGDALLIRGCGRTDFQQGSSEALYKSVHGKILSLPEQFILYPAHDYTGQTSTTVREEKNHNPRLTKPI
notes: C-terminally truncated SDO, 759 bp from the start codon
For the protein B4, in data set [4], the Km came to 83.0 ± 10.9 µM, the Vmax came out at 1.23 ± 0.063 µmol/min/mg and the kcat is 0.68 s⁻¹.

B5: Del-1 (Urechis unicinctus) (protein)
chain: MLSSVCGSLRRTLCNGSVLASKHPFLGRSNALKLETKPVCTRVMYRSYSANMHGQEVVFRQLFDNTSFTYTYLLGDAASKEAVLIDPVIELVDRDVRIVKELGLNL
notes: C-terminally truncated SDO, 318 bp from the start codon (106 residues, end calculated from printed size), lacks all metal sites
Regarding B5, in data set [5], the Michaelis-Menten constant (Km) was 218.9 ± 33.5 µM, the Vmax worked out at 0.33 ± 0.014 µmol/min/mg and the kcat came out at 0.09 s⁻¹.

B6: Del-3 (Urechis unicinctus) (protein)
chain: MLSSVCGSLRRTLCNGSVLASKHPFLGRSNALKLETKPVCTRVMYRSYSANMHGQEVVFRQLFDNTSFTYTYLLGDAASKEAVLIDPVIELVDRDVRIVKELGLNLKYAVNTHVHADHVTGTGEIKKRIPTCKSVIAECSQAKADVFINEGDGIEFGQFKLECRSTPGHTDGCFTYVWHEKGMAFTGDALLIRGCGRTDFQQGSS
notes: C-terminally truncated SDO, 615 bp from the start codon (205 residues, end calculated from printed size)
Take B6: in data set [6], the Km came out at 104.6 ± 16.7 µM, the Vmax stood at 0.98 ± 0.065 µmol/min/mg and the kcat came out at 0.45 s⁻¹.
